For 44 molecules, T1/2 results are on record in patent publication US20100196390A1 (RINAT NEUROSCIENCE, published 2010).

Numbering of substitutions follows the chain as printed.

First the molecules themselves.
B1: 16-B2 (Fab, V domains shown)
VH: QVQLVQSGAEVKKPGASVKVSCKASGYTFTNYDIIWVRQAPGQGLEWMGYINPYNDGTKYNEKFKGRVTMTRDTSTSTVYMELSSLRSEDTAVYYCARLLKYRRFRYYAIDYWGQGTTVTVSS
VL: DIQMTQSPSSLSASVGDRVTITCRASENVYSNLAWYQQKPGKAPKLLIYAASNLQSGVPSRFSGSGSGTDFTFTISSLQPEDIATYYCQHFWGSPFTFGQGTKLEIK
notes: Fab
B2: 4B12-6 (Fab, V domains shown)
VH: B1 VH with D56G, T58R, K59E
VL: B1 VL with N28P, L33V, F71Y
notes: Fab
B3: 4A6-12 (Fab, V domains shown)
VH: B1 VH with D56R, G57R, T58R
VL: B1 VL with R24H, F71Y
notes: Fab
B4: 3-G5 (Fab, V domains shown)
VH: B1 VH with D33V, I35L, R106S
VL: B1 VL with H90N, G93Y
notes: Fab
B5: 1-A6 (Fab, V domains shown)
VH: B1 VH with D33V, I35L, F105H, R106S
VL: B1 VL with G93K
notes: Fab
B6: 2-F6 (Fab, V domains shown)
VH: B1 VH with D33V, I35L
VL: B1 VL with G93Y
notes: Fab
B7: 2-B1 (Fab, V domains shown)
VH: B1 VH with D33V, I35L, R106S
VL: B1 VL with H90N, G93Y
notes: Fab
B8: 3-F11 (Fab, V domains shown)
VH: B1 VH with D33V, I35L
VL: B1 VL with G93Y
notes: Fab
B9: 4-A1 (Fab, V domains shown)
VH: B1 VH with D33V, I35L, R106S
VL: B1 VL with W92Y, G93Y
notes: Fab
B10: 1-H6 (Fab, V domains shown)
VH: B1 VH with D33V, I35L, R106S
VL: B1 VL with G93W
notes: Fab
B11: 4B12-13 (Fab, V domains shown)
VH: B1 VH with D56G, G57R, T58R, K59E, E62A
VL: B1 VL with N28P, L33V, F71Y
notes: Fab
B12: 3-F10 (Fab, V domains shown)
VH: B1 VH with D33V, I35L, R106S
VL: B1 VL with G93Y, T97K
notes: Fab
B13: 1-A11 (Fab, V domains shown)
VH: B1 VH with D33V, I35L, R106S
VL: B1 VL with G93Y
notes: Fab
B14: 4B12-5 (Fab, V domains shown)
VH: B1 VH with G57R, T58R, K59E
VL: B1 VL with N28P, L33V, F71Y
notes: Fab
B15: 3-B11 (Fab, V domains shown)
VH: B1 VH with D33V, I35L
VL: B1 VL with G93Y, P95G
notes: Fab
B16: 4B12-2 (Fab, V domains shown)
VH: B1 VH with N55Q, D56G, G57R, T58R, K59E
VL: B1 VL with N28P, L33V, F71Y
notes: Fab
B17: 4B12-16 (Fab, V domains shown)
VH: B1 VH with P53A, D56G, G57R, T58R, K59E
VL: B1 VL with N28P, L33V, F71Y
notes: Fab
B18: 4-D4 (Fab, V domains shown)
VH: B1 VH with D33V, I35L
VL: B1 VL with G93Y
notes: Fab
B19: 4B12-3 (Fab, V domains shown)
VH: B1 VH with N55V, D56G, G57R, T58R, K59E
VL: B1 VL with N28P, L33V, F71Y
notes: Fab
B20: 4-E1 (Fab, V domains shown)
VH: B1 VH with D33V, I35L, R104A, R106S
VL: B1 VL
notes: Fab
B21: 2-A2 (Fab, V domains shown)
VH: B1 VH with D33V, I35L, F105L, R106S
VL: B1 VL with G93Y
notes: Fab
B22: 2-F10 (Fab, V domains shown)
VH: B1 VH with D33V, I35L, R106S
VL: B1 VL with H90V, G93Y
notes: Fab
B23: 4B12-18 (Fab, V domains shown)
VH: B1 VH with N55A, D56G, G57R, T58R, K59E
VL: B1 VL with N28P, L33V, F71Y
notes: Fab
B24: 4B12-19 (Fab, V domains shown)
VH: B1 VH with D56G, G57R, T58R, K59E, Y60A
VL: B1 VL with N28P, L33V, F71Y
notes: Fab
B25: 3-C12 (Fab, V domains shown)
VH: B1 VH with D33V, I35L, R106S
VL: B1 VL
notes: Fab
B26: 1-D3 (Fab, V domains shown)
VH: B1 VH with D33V, I35L, R106S, Y112E
VL: B1 VL with G93Y
notes: Fab
B27: 4-F10 (Fab, V domains shown)
VH: B1 VH with D33V, I35L, R106S
VL: B1 VL with H90Q, G93Y
notes: Fab
B28: 3-F7 (Fab, V domains shown)
VH: B1 VH with D33V, I35L
VL: B1 VL with G93K
notes: Fab
B29: 4B12-7 (Fab, V domains shown)
VH: B1 VH with D56G, G57R, K59E
VL: B1 VL with N28P, L33V, F71Y
notes: Fab
B30: 3-H8 (Fab, V domains shown)
VH: B1 VH with D33V, I35L
VL: B1 VL with G93Y, T97V
notes: Fab
B31: 1-E9 (Fab, V domains shown)
VH: B1 VH with D33V, I35L, F105M, R106S
VL: B1 VL with G93Y
notes: Fab
B32: 3-F2 (Fab, V domains shown)
VH: B1 VH with D33V, I35L, R106S
VL: B1 VL with G93Y, T97I
notes: Fab
B33: 2-G12 (Fab, V domains shown)
VH: B1 VH with D33V, I35L
VL: B1 VL with G93Y, S94R
notes: Fab
B34: 1-G12 (Fab, V domains shown)
VH: B1 VH with D33V, I35L, R106S
VL: B1 VL with G93Y, T97G
notes: Fab
B35: 4-C7 (Fab, V domains shown)
VH: B1 VH with D33V, I35L, R106S
VL: B1 VL
notes: Fab
B36: 4B12-17 (Fab, V domains shown)
VH: B1 VH with Y54A, D56G, G57R, T58R, K59E
VL: B1 VL with N28P, L33V, F71Y
notes: Fab
B37: 4B12-15 (Fab, V domains shown)
VH: B1 VH with N52A, D56G, G57R, T58R, K59E
VL: B1 VL with N28P, L33V, F71Y
notes: Fab
B38: 1-B11 (Fab, V domains shown)
VH: B1 VH with D33V, I35L, R106S
VL: B1 VL with H90N, G93Y
notes: Fab
B39: 1-B10 (Fab, V domains shown)
VH: B1 VH with D33V, I35L, R106S, Y107F
VL: B1 VL with H90G, G93Y
notes: Fab
B40: 4B12-8 (Fab, V domains shown)
VH: B1 VH with D56G, G57R, T58R
VL: B1 VL with N28P, L33V, F71Y
notes: Fab
B41: 4-B2 (Fab, V domains shown)
VH: B1 VH with D33V, I35L
VL: B1 VL
notes: Fab
B42: 3-G7 (Fab, V domains shown)
VH: B1 VH with D33V, I35L, R106S, I110E
VL: B1 VL with H90N, G93Y
notes: Fab
B43: 4B12-14 (Fab, V domains shown)
VH: B1 VH with N52S, D56G, G57R, T58R, K59E
VL: B1 VL with N28P, L33V, F71Y
notes: Fab
B44: 4B12-4 (Fab, V domains shown)
VH: B1 VH with D56A, G57R, T58R, K59E
VL: B1 VL with N28P, L33V, F71Y
notes: Fab

Sequence of TrkB (Q16620 32-430 limits assumed): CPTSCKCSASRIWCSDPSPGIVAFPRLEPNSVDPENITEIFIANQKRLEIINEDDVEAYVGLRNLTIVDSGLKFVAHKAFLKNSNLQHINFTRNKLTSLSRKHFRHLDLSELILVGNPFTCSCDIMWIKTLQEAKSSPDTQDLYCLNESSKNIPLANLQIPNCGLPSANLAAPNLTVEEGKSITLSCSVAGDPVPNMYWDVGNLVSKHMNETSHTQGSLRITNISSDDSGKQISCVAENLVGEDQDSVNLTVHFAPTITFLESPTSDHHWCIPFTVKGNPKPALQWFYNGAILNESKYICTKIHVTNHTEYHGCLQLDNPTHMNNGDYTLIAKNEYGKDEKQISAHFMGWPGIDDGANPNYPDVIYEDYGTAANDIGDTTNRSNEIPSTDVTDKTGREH

This experiment has as its target TrkB (Homo sapiens (Human), UniProt Q16620 32-430). The experiment can be described thus: koff of Fab at 25 C; T1/2=Log2/koff. In a few lines: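 Monovalent Fab fragments were tested at 25° C by surface plasmon resonance on a Biacore instrument, against TrkB extracellular-domain monomer amine-coupled to the chip at low capacity. Fabs were injected low to high as a 3-fold serial dilution from 100 nM for 84 sec, with a 10 minute dissociation after the top sample. The dissociation half-life was calculated from koff, which was fitted to a Langmuir binding model in BIAevaluation. The formula used was T1/2 = Log 2/koff.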
Take B1: the T1/2 worked out at 5 min. As for B2, the T1/2 was found to be 3.7 min. As for B3, the figure is 74.2 min; as for B4, 1.21 min; as for B5, 0.42 min.

For B6, the T1/2 came out at 0.23 min. As for B7, the figure is 0.32 min. In the case of B8 it was 1.16 min. The molecule B9 registered a T1/2 of 0.93 min. B10 had a T1/2 of 0.62 min. In the case of B11 it was 13.7 min; in that of B12, 0.79 min.

B13 displayed a T1/2 of 1.08 min. Molecule B14 came in with a T1/2 of 16.1 min. As for B15, the figure is 0.87 min; as for B16, 5.8 min. In the case of B17, the T1/2 was determined as 5.6 min. In the case of B18 it was 1.24 min; in that of B19, 6.6 min. As for B20, the figure is 0.71 min; as for B21, 0.57 min.

B22 gave a T1/2 of 0.48 min. As for B23, the figure is 3.8 min; as for B24, 13.1 min. Regarding B25, the T1/2 turned out to be 0.84 min. In the case of B26 it was 0.92 min; in that of B27, 1.03 min; in that of B28, 1.01 min. Regarding B29, the T1/2 turned out to be 7.6 min. In the case of B30 it was 0.81 min. As for B31, the figure is 1.04 min. In the case of B32 it was 1.38 min.

The molecule B33 had a T1/2 of 0.3 min. As for B34, the figure is 0.4 min. In the case of B35 it was 1.4 min. In the case of B36 it was 1 min; in that of B37, 2.7 min; in that of B38, 0.72 min. For B39, the T1/2 stood at 0.55 min. Molecule B40 registered a T1/2 of 13.8 min. As for B41, the figure is 1.33 min; as for B42, 0.92 min; as for B43, 3.2 min. As for B44, the figure is 11.4 min.
